Experimental data: patent publication US7135457B1, “Random peptides that bind to gastro-intestinal tract (GIT) transport receptors and related methods” (Cytogen Corporation, priority 1997, dated 2006)

What was measured:
hPEPT1 = molecular target: T1, hPEPT1 (Homo sapiens, UniProt P46059); test: Receptor ELISA of phage on hPEPT1; type: binding; conditions: Table 4; ratio
T1 construct: 391-571; made in house
T1 sequence (P46059 391-571): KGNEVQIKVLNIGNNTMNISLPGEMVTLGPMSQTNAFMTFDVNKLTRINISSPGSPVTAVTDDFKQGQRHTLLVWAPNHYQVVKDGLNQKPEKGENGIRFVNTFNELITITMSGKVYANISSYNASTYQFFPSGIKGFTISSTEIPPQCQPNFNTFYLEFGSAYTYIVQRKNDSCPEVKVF
Experimental: The plates were blocked for one hour with 0.5% BSA-PBS. After clarification, the amplified phage were diluted 1:100 in 1% BSA plus 0.05% Tween 20 in PBS and added to the plates. Following incubation of the plates on a rotator for 1 to 2 hours, the plates were washed 5 times with 1% BSA plus 0.05% Tween 20 in PBS. […] After the plates were washed 5 times, as described above, TMB substrate was added to the wells. The plates were read at 650 nm absorbance.

BSA = BSA (Bos taurus, UniProt P02769); test: Phage ELISA on BSA (background control protein); type: binding; conditions: Table 4
Experimental: 96 well plates were coated overnight with GIT receptor, BSA and, optionally, IDE (insulin degrading enzyme, an irrelevant His-fusion protein) or hTF. The plates were blocked for one hour with 0.5% BSA-PBS. After clarification, the amplified phage were diluted 1:100 in 1% BSA plus 0.05% Tween 20 in PBS and added to the plates. Following incubation of the plates on a rotator for 1 to 2 hours, the plates were washed 5 times with 1% BSA plus 0.05% Tween 20 in PBS. Dilute anti-M13-HRP conjugate (anti-M13 antibody linked to horse radish peroxidase (HRP)) was added to all the wells and the plate was incubated for one hour on a rotator. After the plates were washed 5 times, as described above, TMB substrate was added to the wells. The plates were read at 650 nm absorbance.

[1] = Experimental: In particular, phages selected in vitro to each receptor or binding site located in the GIT were amplified in E. coli, PEG-precipitated, resuspended in TBS and the titer of each phage sample was determined by plaquing in E. coli as described above. […] Using the in situ loop model described above, 0.5 ml of preselected phage library solution was injected into the tied-off portion of the duodenum/jejunum. Blood was collected into heparinized tubes from the portal vein at 0, 15, 30, 45 and 60 minutes. A blood sample was taken from the systemic circulation at the end of the experiment. Similarly, the portion of the duodenum/jejunum used for phage injection was taken at the end of the experiment.
Thirty microliters of the collected portal blood (neat and 10^−2, 10^−4, 10^−6 dilutions) was added to 30 μl E. coli K91Kan cells (overnight culture) and incubated at 37° C. for 10 min. Subsequently, 3 ml of top agarose was added and the samples were plated for plaques. One hundred microliters of the collected portal blood was added to 100 μl of E. coli K91Kan. Five milliliters of LB medium was then added and the samples were incubated at 37° C. overnight in a rotating microbial incubator. The E. coli was removed by centrifugation and the amplified phage supernatant samples were either titered directly or were PEG-precipitated, resuspended in TBS and titered. Following titration of the amplified phage, samples containing phage from each set of animals were combined, adjusting the titer of each sample to the same titer, and were plated for plaques on LB agar plates (22 cm^2 square plates). Either 12,000 or 24,000 phage were plated for plaques.
Thirty microliters of the collected systemic blood (neat and 10^−2, 10^−4, 10^−6 dilutions) was added to E. coli K91Kan cells, incubated at 37° C. for 10 min. Three ml of top agarose was then added and the samples were plated for plaques. One hundred microliters of the collected systemic blood was added to 100 μl of E. coli K91Kan, incubated at 37° C. for 10 min. Five milliliters of LB medium was then added and the samples were incubated at 37° C. overnight in a rotating microbial incubator. The E. coli was removed by centrifugation and the amplified phage supernatant samples were either titered directly or were PEG-precipitated, resuspended in TBS and titered. Following titration of the amplified phage, samples containing phage from each set of animals were combined, adjusting the titer of each sample to the same titer, and were plated for plaques on LB agar plates (22 cm^2 square plates). Either 12,000 or 24,000 phage were plated for plaques. The intestinal tissue portion used in each closed loop was excised. […] Alternatively, the tissue (in PBS supplemented with protease inhibitors) was homogenized in an Ultra Thorex homogenizer, washed 3 times in PBS containing protease inhibitors and resuspended in PBS containing protease inhibitors (Int-G samples). In each case, serial dilutions (neat and 10^−2, 10^−4, 10^−6 dilutions) of the tissue homogenate was titered in E. coli.
The phage amplified from the portal blood, systemic blood and intestinal tissue was plated for plaques. […] The filters were air-dried, and the DNA was cross-linked to the filter (UV crosslinking: 2 min, high setting). The filters were incubated in pre-hybridization buffer (6×SSC, 5×Denhardt's solution, 0.1% SDS, 20 μg/ml yeast tRNA) at 40° C.-45° C. for at least 60 min.
Synthetic oligonucleotides, (22-mers), complimentary to regions coding for the receptor or binding sites used to create the preselected phage library, were synthesized (see Table 14 below).
The oligonucleotides (5 pmol) were 5′ end labelled with ^32P-ATP and T4 polynucleotide kinase and approximately 2.5 pmol of labelled oligonucleotide was used in hybridization studies. […] The filters were air-dried and exposed for autoradiography for 15 hours, 24 hours or 72 hours.
Hybridization data for pools from each receptor group of rats was compiled.

[2] = Drug potency, peptide loading and size of coacervated particles; type: physicochemical; conditions: formulation 1 particles (coacervation), blend

Sequence of BSA (P02769 25-607): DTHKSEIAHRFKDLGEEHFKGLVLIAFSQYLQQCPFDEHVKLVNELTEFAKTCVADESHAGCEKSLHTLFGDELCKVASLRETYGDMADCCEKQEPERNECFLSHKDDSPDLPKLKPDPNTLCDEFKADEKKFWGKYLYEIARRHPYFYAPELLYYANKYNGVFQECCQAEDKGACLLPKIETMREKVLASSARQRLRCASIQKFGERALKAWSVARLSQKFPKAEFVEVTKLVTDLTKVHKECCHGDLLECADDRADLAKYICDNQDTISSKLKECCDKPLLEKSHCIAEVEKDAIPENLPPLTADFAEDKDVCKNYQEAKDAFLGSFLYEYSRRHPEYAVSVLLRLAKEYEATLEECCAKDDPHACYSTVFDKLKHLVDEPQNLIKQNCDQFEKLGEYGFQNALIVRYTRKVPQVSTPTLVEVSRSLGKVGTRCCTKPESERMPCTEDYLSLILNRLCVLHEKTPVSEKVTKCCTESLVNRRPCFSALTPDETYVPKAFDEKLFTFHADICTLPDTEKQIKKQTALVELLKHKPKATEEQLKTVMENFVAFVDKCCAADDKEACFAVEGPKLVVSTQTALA

In the case of “RGSTGTAGGERSGVLNLHTRDNASGSGFKPWYPSNRGHK [Peptide 5PAX5]”, the PEPT1/BSA (hPEPT1) is reported as 4, the BSA (BSA) is reported as 0.036 OD and the “presence in the systemic circulation (in words)” value ([1]; text summary of HPT1 and hPEPT1 pools) is reported as “found in the systemic circulation”. The “transport from the GIT closed loop into the portal circulation (in words)” value ([1]; text summary of hSI, D2H, HPT1, hPEPT1 pools) was “not found in the portal blood”, the “presence in the intestine samples or fractions (in words)” value ([1]; text summary of the four pools) was “not found in the intestine samples” and the “Insulin (insulin potency)” value ([2]; coated with the named peptide) was 52.7 mg/g. The “Peptide (level of peptide coated onto the particles)” value ([2]; measured by fluorescence) was 2.83 µL/mg.
